The source of these data is patent US7112317.

Experiment [1] has as its target human endoglin (human) (UniProt P17813). The experiment can be described thus: FACS, postconfluent HUVEC stained with 20 µg/ml TEC-11, sorted endoglin^lo fraction; mean (SD) of 2 studies.
Experiment [2] has the same target. Put plainly: FACS, postconfluent HUVEC stained with 20 µg/ml TEC-11, sorted endoglin^hi fraction; mean (SD) of 2 studies.
Experiment [3] shares this target. Put plainly: FACS, indirect immunofluorescence on HUVEC, antibody at 10 µg/ml, MTSA control subtracted. On the technique in general: A flow cytometer gives signals particle by particle.
Experiment [4] shares this target. The experiment can be described thus: cell-based or functional assay.
Experiment [5] shares this target. Put plainly: competitive binding inhibition on HUVEC by FACS; unlabelled TEC-4 against biotinylated TEC-11 as competitor, ratio 1:1.

On to TEC-11 (antibody), for which the MFI in the experiment with human endoglin (human) [1] came to 61.6. Also, the MFI with human endoglin (human) [2] turned out to be 270. For the same substance, the specific mean fluorescence intensity (MFI) with human endoglin (human) [3] was 200. Besides, in the experiment with human endoglin (human) [4], the complement fixation relative to TEC-4 is 100 fold and the complement fixation: lysis of HUVEC with guinea-pig complement (trypan blue) (% lysis at 1 µg/ml) was above 50.

With TEC-4 (antibody), in the experiment with human endoglin (human) [5], the percent blocking was 11%. Also, the specific mean fluorescence intensity (MFI) with human endoglin (human) [3] is 200. In the experiment with human endoglin (human) [4], this substance showed a complement fixation: lysis of HUVEC with guinea-pig complement (trypan blue) (% lysis at 100 µg/ml) of 48.
